Assay results reported in the Human Domainome abundance scans (Beltran et al. 2025).
± gives the uncertainty stated by the source.

B1: Transcriptional regulator ERG, residues 117 to 197; numbered along this chain, P11308 (parent)
chain: NMTTNERRVIVPADPTLWSTDHVRQWLEWAVKEYGLPDVNILLFQNIDGKELCKMTKDDFQRLTPSYNADILLSHLHYLRE

Variants of: B1
Assay: abundance fitness (aPCA) (normalised: wild type 0, dead -1); higher = more abundant; growth selection in yeast, the domain comes from the species named
Details: Homo sapiens

Abundance fitness, by site and new letter:
P15: N -0.967 ± 0.19 | R -0.835 ± 0.09 | D -0.94 ± 0.17 | V -0.267 ± 0.047 | I -0.171 ± 0.072 | L -0.41 ± 0.056 | F -0.273 ± 0.085 | W -0.516 ± 0.091 | M -0.638 ± 0.13 | A -0.269 ± 0.053 | Q -0.495 ± 0.092 | T -0.632 ± 0.085 | H -0.86 ± 0.19 | G -0.803 ± 0.088 | S -0.611 ± 0.076 | Y -0.266 ± 0.065 | K -0.915 ± 0.17 | C -0.323 ± 0.069 | E -0.86 ± 0.15
R24: F -0.218 ± 0.14 | G -0.088 ± 0.037 | L -0.017 ± 0.044 | K 0 ± 0.056 | Q 0.077 ± 0.059 | V -0.015 ± 0.04 | I -0.162 ± 0.1 | H -0.182 ± 0.11 | N -0.105 ± 0.13 | M -0.023 ± 0.055 | E -0.211 ± 0.053 | S -0.02 ± 0.046 | T 0.069 ± 0.055 | P -0.988 ± 0.18 | D -0.908 ± 0.24 | W -0.522 ± 0.076 | C -0.058 ± 0.071 | Y -0.209 ± 0.097
P12: N -0.027 ± 0.068 | T -0.343 ± 0.077 | V -0.631 ± 0.067 | C -0.644 ± 0.12 | K -0.215 ± 0.058 | G -0.136 ± 0.033 | L -0.505 ± 0.058 | W -0.15 ± 0.044 | D -0.042 ± 0.064 | A -0.176 ± 0.047 | Y -0.45 ± 0.12 | R -0.248 ± 0.038 | M -0.65 ± 0.1 | E -0.019 ± 0.045 | F -0.486 ± 0.099 | H -0.452 ± 0.12 | S -0.209 ± 0.049 | I -1.37 ± 0.5
D21: L -0.106 ± 0.04 | Y -0.186 ± 0.071 | F 0.024 ± 0.074 | V -0.077 ± 0.038 | C -0.09 ± 0.061 | K -0.138 ± 0.054 | W -0.141 ± 0.048 | G -0.032 ± 0.032 | N -0.113 ± 0.083 | R -0.051 ± 0.034 | H -0.09 ± 0.1 | Q -0.087 ± 0.051 | M -0.084 ± 0.057 | T -0.065 ± 0.053 | S -0.008 ± 0.042 | E 0.042 ± 0.04 | I -0.035 ± 0.083 | A 0.004 ± 0.039
I10: W -0.089 ± 0.049 | P 0.214 ± 0.06 | M 0.038 ± 0.053 | V 0.03 ± 0.04 | Y -0.013 ± 0.1 | H 0.138 ± 0.085 | T 0.264 ± 0.062 | R 0.093 ± 0.035 | Q 0.129 ± 0.056 | L -0.058 ± 0.047 | G 0.227 ± 0.03 | S 0.116 ± 0.046 | K 0.109 ± 0.055
W26: Q -0.811 ± 0.19 | C -0.982 ± 0.21 | A -0.886 ± 0.11 | Y 0.011 ± 0.073 | R -0.808 ± 0.072 | E -0.727 ± 0.1 | I -0.942 ± 0.25 | G -0.965 ± 0.075 | N -0.657 ± 0.21 | K -0.785 ± 0.13 | L -0.658 ± 0.073 | V -0.778 ± 0.081 | P -0.956 ± 0.17 | H -0.96 ± 0.36 | T -1.34 ± 0.32 | F -0.068 ± 0.08 | S -0.76 ± 0.094
E28: K -0.041 ± 0.064 | P -0.534 ± 0.13 | F -0.24 ± 0.13 | W -0.16 ± 0.058 | S -0.099 ± 0.047 | D -0.146 ± 0.091 | V -0.04 ± 0.042 | H 0.005 ± 0.12 | R -0.095 ± 0.039 | T -0.031 ± 0.061 | I -0.108 ± 0.092 | A -0.022 ± 0.045 | C -0.037 ± 0.066 | Y -0.093 ± 0.087 | Q -0.062 ± 0.068 | L -0.09 ± 0.049 | N 0.012 ± 0.081
V11: D 0.013 ± 0.068 | A 0.102 ± 0.04 | W 0.2 ± 0.04 | R 0.209 ± 0.033 | K 0.029 ± 0.048 | C 0.106 ± 0.064 | G 0.05 ± 0.031 | Q -0.017 ± 0.054 | S 0.104 ± 0.044 | H 0.321 ± 0.089 | N 0.063 ± 0.073 | E 0.056 ± 0.048 | I 0.102 ± 0.051 | M 0.087 ± 0.053 | L 0.067 ± 0.037 | F 0.078 ± 0.076 | Y 0.113 ± 0.072
T16: G -0.026 ± 0.033 | I 0.048 ± 0.082 | Q -0.171 ± 0.083 | F -0.008 ± 0.11 | S -0.064 ± 0.054 | L 0.052 ± 0.046 | Y 0.017 ± 0.081 | W -0.115 ± 0.054 | H 0.128 ± 0.09 | C 0.028 ± 0.066 | P -0.428 ± 0.11 | M 0.02 ± 0.053 | R -0.092 ± 0.038 | K -0.05 ± 0.059 | D -0.115 ± 0.072 | N -0.061 ± 0.075
W18: F -0.886 ± 0.25 | Y -0.738 ± 0.16 | C -1.04 ± 0.19 | L -0.979 ± 0.13 | A -0.676 ± 0.09 | E -0.885 ± 0.12 | H -1.04 ± 0.46 | V -0.937 ± 0.1 | P -1.17 ± 0.32 | K -0.625 ± 0.11 | N -0.994 ± 0.29 | D -0.923 ± 0.25 | G -0.895 ± 0.086 | M -0.635 ± 0.11
